In the RNAGym collection of RNA variant scans (doi:10.1073/pnas.2313332121):
Fewer inactive variants are shown than the library holds.

B1: TPR 5TU (parent)
chain: GGAUCUUCUCGAUCUAACAAAAAAGACAAAUCUGCCACAAAGCUUGAGAGCAUCUUCGGAUGCAGAGGCGGCAGCCUUCGGUGGCGCGAUAGCGCCAACGUUCUCAACUAUGACACGCAAAACGCGUGCUCCGUUGAAUGGAGUUUAUCAUG

Variants of: B1
Assay: polymerase ribozyme fitness, log enrichment relative to wild type (log ratio); higher = more active; in vitro selection for triplet polymerase activity
In short: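 Both subunits of a heterodimeric triplet polymerase ribozyme were given their own mutant library, built by PCR and transcribed. Each library was annealed with a biotinylated primer, the partner subunit and triplets, incubated frozen at −7 °C, and its extended constructs gel-excised, captured on streptavidin beads and amplified by RT-PCR, all in one round done in triplicate. Fitness is the logarithm of genotype enrichment relative to wild-type enrichment, with replicates averaged by inverse-variance weighting. That logarithm is base 2, and Illumina-sequenced genotypes needed ≥10 input reads and ≥1 read per output.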
In the case of A20C G62A G86U, the “polymerase ribozyme fitness (log ratio)” value is reported as -2.06. With A20U C125A the “polymerase ribozyme fitness (log ratio)” value was -2.05. With A20U G74A A137U the “polymerase ribozyme fitness (log ratio)” value was at most -4.2. For A20C C63U G88C C95U, the “polymerase ribozyme fitness (log ratio)” value was at most -4.2. In the case of A20G C96A, the “polymerase ribozyme fitness (log ratio)” value is reported as -1.84. For A20G A24G A40C A49C C85A, the “polymerase ribozyme fitness (log ratio)” value was at most -4.2. For A20U G48A A60G U139A A142C A147G, the “polymerase ribozyme fitness (log ratio)” value was at most -4.2. With A20G C38U A47C A60G C93U A106G G128U the “polymerase ribozyme fitness (log ratio)” value was at most -4.2. With A20U C57A the “polymerase ribozyme fitness (log ratio)” value was -1.36. In the case of A20U C57U, the “polymerase ribozyme fitness (log ratio)” value is reported as -2.23. For A19U U44A C95U C99G, the “polymerase ribozyme fitness (log ratio)” value was at most -4.2. In the case of A20U A23C A47C U55G G86U A91G, the “polymerase ribozyme fitness (log ratio)” value is reported as at most -4.2. With A20U A23C C35U C75U C103G G136A the “polymerase ribozyme fitness (log ratio)” value was at most -4.2. For A20G C32G G86U C87A U109A, the “polymerase ribozyme fitness (log ratio)” value was at most -4.2. In the case of A20G A47C G48C G50C U56C C87A C95G U139A G141A, the “polymerase ribozyme fitness (log ratio)” value is reported as -4.1. In the case of A20G A30U C95U, the “polymerase ribozyme fitness (log ratio)” value is reported as -3.5. With A20G A24G C51U C85U A120U C149G the “polymerase ribozyme fitness (log ratio)” value was at most -4.2. For A20G U55A C96A U104G, the “polymerase ribozyme fitness (log ratio)” value was -2.4. With A20C A40G A52G C85A A98G the “polymerase ribozyme fitness (log ratio)” value was -4.01. For A20G A73U G83A, the “polymerase ribozyme fitness (log ratio)” value was -2.36. For A20G A52G G58U C87U, the “polymerase ribozyme fitness (log ratio)” value was -0.805. For A20G A22U G70U C85G A110U A121C, the “polymerase ribozyme fitness (log ratio)” value was at most -4.2. For A20G C54U A60U C85A, the “polymerase ribozyme fitness (log ratio)” value was -3.42. In the case of A20U G50A G86U C96G, the “polymerase ribozyme fitness (log ratio)” value is reported as at most -4.2. With A20U C36G G70A the “polymerase ribozyme fitness (log ratio)” value was -4.1. For A20C A26C A30C U44G G50A A66C, the “polymerase ribozyme fitness (log ratio)” value was at most -4.2. In the case of A20U A23G G50U G86A A110C C129G G140A, the “polymerase ribozyme fitness (log ratio)” value is reported as at most -4.2. For A20G G74A C87U U101C A107U, the “polymerase ribozyme fitness (log ratio)” value was at most -4.2. For A20C A26C G128U U144G, the “polymerase ribozyme fitness (log ratio)” value was at most -4.2. For A20G G59A, the “polymerase ribozyme fitness (log ratio)” value was -0.551. In the case of A19U U31C C51U, the “polymerase ribozyme fitness (log ratio)” value is reported as 0.159. For A20G G68U C85U, the “polymerase ribozyme fitness (log ratio)” value was at most -4.2. For A19U G59U G86A G136A, the “polymerase ribozyme fitness (log ratio)” value was -2.01. In the case of A20U A22C U82G G86U U101G C103G G143U, the “polymerase ribozyme fitness (log ratio)” value is reported as at most -4.2. For A20C A73C G81A U90C G92C U104G, the “polymerase ribozyme fitness (log ratio)” value was at most -4.2. With A20C U144G the “polymerase ribozyme fitness (log ratio)” value was 0.273. For A20U A41U U55A A66U G84A C116A, the “polymerase ribozyme fitness (log ratio)” value was at most -4.2. With A20C G68C G141C the “polymerase ribozyme fitness (log ratio)” value was at most -4.2. For A19U U56A A60G U104G G152A, the “polymerase ribozyme fitness (log ratio)” value was -2.82. For A20C C93G, the “polymerase ribozyme fitness (log ratio)” value was -3.89. For A20C C93U, the “polymerase ribozyme fitness (log ratio)” value was -1.41. For A20C A49C A52C C57U C76A G88A A106G G126C U145G, the “polymerase ribozyme fitness (log ratio)” value was at most -4.2. For A20G U53A U56A G58A C69U C93U, the “polymerase ribozyme fitness (log ratio)” value was -3.35. In the case of A20U A28U C96G, the “polymerase ribozyme fitness (log ratio)” value is reported as at most -4.2. In the case of A20C U61G G112C, the “polymerase ribozyme fitness (log ratio)” value is reported as at most -4.2. In the case of A20C C27U G81A G86A C99G, the “polymerase ribozyme fitness (log ratio)” value is reported as -2.96. In the case of A19U U53G C93G, the “polymerase ribozyme fitness (log ratio)” value is reported as at most -4.2. For A20C U33A C43U G88U G92A A115C G126A C132U A147C, the “polymerase ribozyme fitness (log ratio)” value was at most -4.2. In the case of A20U C38U C75A C87G A107U C132U, the “polymerase ribozyme fitness (log ratio)” value is reported as at most -4.2. In the case of A20U G42A G62A G86U U134G G140U, the “polymerase ribozyme fitness (log ratio)” value is reported as at most -4.2. For A20C U82A A150G, the “polymerase ribozyme fitness (log ratio)” value was -0.662. In the case of A20U A122U U144G, the “polymerase ribozyme fitness (log ratio)” value is reported as -0.756. In the case of A20U C35A A41C C95U U145A, the “polymerase ribozyme fitness (log ratio)” value is reported as at most -4.2. For A20C C99G, the “polymerase ribozyme fitness (log ratio)” value was -1.06. For A20C C35U A97G, the “polymerase ribozyme fitness (log ratio)” value was -0.284. For A20C A23U A29U G92A A110U U139G A142G U144G, the “polymerase ribozyme fitness (log ratio)” value was at most -4.2. In the case of A20U A40U C69A, the “polymerase ribozyme fitness (log ratio)” value is reported as -2.77. With A20U G50A A89U A91G the “polymerase ribozyme fitness (log ratio)” value was at most -4.2. With A20G C76A U90G A97G G136C the “polymerase ribozyme fitness (log ratio)” value was at most -4.2. For A20U A52C C54U G88U A107U C116A, the “polymerase ribozyme fitness (log ratio)” value was at most -4.2. For A20C U31G A49C A52C U53C, the “polymerase ribozyme fitness (log ratio)” value was at most -4.2. For A20C C76G, the “polymerase ribozyme fitness (log ratio)” value was at most -4.2. For A20U A29C A30G C54A G67C G80U C93U G94A A97C C99U, the “polymerase ribozyme fitness (log ratio)” value was at most -4.2. For A20G A40C A41G A49C C76G G88A C96U, the “polymerase ribozyme fitness (log ratio)” value was at most -4.2. In the case of A20G C57G A66C G94A C132U, the “polymerase ribozyme fitness (log ratio)” value is reported as at most -4.2. In the case of A20G A30U G83A A110C U148C, the “polymerase ribozyme fitness (log ratio)” value is reported as at most -4.2. In the case of A20G C35G A49C A73G C87G, the “polymerase ribozyme fitness (log ratio)” value is reported as at most -4.2. In the case of A20U A41U G48A A49G C96G A106G A107G U135G, the “polymerase ribozyme fitness (log ratio)” value is reported as at most -4.2. For A20C A29C C87G A122G G140U, the “polymerase ribozyme fitness (log ratio)” value was at most -4.2. With A20U C27U G42U A52C U55A C95G C96U the “polymerase ribozyme fitness (log ratio)” value was at most -4.2. In the case of A20G G25A A40U A47G G48C C85A A142G, the “polymerase ribozyme fitness (log ratio)” value is reported as at most -4.2. For A20U G42C C75A C105U C116U A120G G128A U146A, the “polymerase ribozyme fitness (log ratio)” value was at most -4.2. For A20C A98U, the “polymerase ribozyme fitness (log ratio)” value was -1.29. With A20G C85U G94U C95G C125U the “polymerase ribozyme fitness (log ratio)” value was -3.59. For A20G C51U, the “polymerase ribozyme fitness (log ratio)” value was -0.842. In the case of A19U G141A, the “polymerase ribozyme fitness (log ratio)” value is reported as 0.304. In the case of A20U A29G G48C A49C G117A U134G A137C U139A, the “polymerase ribozyme fitness (log ratio)” value is reported as at most -4.2. With A20U A89U the “polymerase ribozyme fitness (log ratio)” value was -2.12. For A20U C63A G84U C87U, the “polymerase ribozyme fitness (log ratio)” value was -3.3. For A20U A30U C76U A89G A91C A122G U134G, the “polymerase ribozyme fitness (log ratio)” value was at most -4.2. With A20C U56G G92U the “polymerase ribozyme fitness (log ratio)” value was -0.962. With A20C U55G C57U A120C the “polymerase ribozyme fitness (log ratio)” value was -0.73. With A19U U45G G83C U127A the “polymerase ribozyme fitness (log ratio)” value was at most -4.2.
